This assay has as its target T1, recombinant secreted soluble PSCA with a C-terminal 6XHis and MYC tag (human) (UniProt O43653).
T1 sequence: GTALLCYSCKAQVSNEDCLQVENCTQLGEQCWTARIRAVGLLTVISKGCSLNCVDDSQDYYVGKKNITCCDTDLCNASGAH
The experiment in a line: SPR (BIAcore), recombinant PSCA immobilized at 30 RU, mAb in solution.

B1: anti-PSCA monoclonal antibody 1G8 (antibody, part only; not given: light chain, V domains shown, part only)
VH: CFFLMAVVIGVNSEVQLQQSGAELVRSGASVKLSCTASGFNIKDYYIHWVNQRPDQGLEWIGWIDPENGDTEFVPKFQGKATMTADIFSNTAYLHLSSLTSEDTAVYYCKTGGFWGQGTLVTVSAAKTTPPSVYPL
In general, Kd refers to the equilibrium constant for the complex coming apart. As a reminder, the kon is the second-order rate constant of association. For B1, the Kd was 1 nM and the association rate constant (kon) stood at 168000 M⁻¹ s⁻¹.

(Values after patent US6541212.)
